In patent US20110172168A1 (MEDIGENE, published 2011):
Values joined by “and” are separate entries in the source; they are usually repeats but may differ in a detail not shown here. Identical values can stand only once.

How the values were obtained:
[1] = target: Class I pMHC on Mel 624 target cells; assay: cell-based or functional assay
[2] = target: T1, CEA-derived … (SEQ ID NO: 71)-HLA-A*0201 complex (biotin on the C-terminal biotinylation tag (enzymatic, BirA)); assay: Biacore SPR, pMHC immobilised
T1 construct: also called soluble biotinylated HLA-A2-peptide complex; not shown: C-terminal biotinylation tag that replaces the transmembrane and cytoplasmic domains
Protocol: SPR measures changes in refractive index expressed in response units (RU) near a sensor surface within a small flow cell, a principle that can be used to detect receptor ligand interactions and to analyse their affinity and kinetic parameters. The probe flow cells were prepared by immobilising the pMHC complexes in flow cells via biotin-tag binding. The assay was then performed by passing soluble ILT over the surfaces of the different flow cells at a constant flow rate, measuring the SPR response in doing so.

Average IC50, inhibition of CTL activation (IFN-γ ELISPOT) [1]: 96 nM
IC50, inhibition of CTL activation (IFN-γ ELISPOT, Mel 624 target cells, MART-1 specific T cell clone KA/C5) [1]: 76 nM and 94 nM and 117 nM
Kd [2]: ≤ 1000 nM
koff [2]: ≤ 2 s⁻¹
B1: soluble high affinity c83 (SEQ ID NO: 19) ILT-like polypeptide (receptor)
chain: MAGHLPKPTLWAEPGSVITMDQPVTLRCQGGQETQEYRLYREKKTAPWITRIPQELVKKGQFPIPSITWEHAGRYRCYYGSDTSQWSASSDPLELVVTGVYIKPTLSAQPSPVVNSGGNVTLQCDSQVAFDGFILCKEGEDEHPQCLNSQPHARGSSRAIFSVGPVSPSRRWWYRCYAYMSWSPYEWSLPSDLLELDVDG
notes: also called clone 83 (c83) ILT-2 polypeptide
